The values that follow come from publication PMC5599796, “Structural insights into transcription initiation by yeast RNA polymerase I” (The EMBO Journal, 2017).

One test concerns the target T1, A135 (S. cerevisiae (endogenous in strain …, UniProt P22138 1-1203)).
T1 construct: A135, second largest subunit of yeast RNA polymerase I; Stood in the assay as a subunit of Pol I within the PIC; also called second largest subunit of Pol I; source: purified from S. cerevisiae strain SC1613 as a subunit of Pol I
T1 sequence (looked up): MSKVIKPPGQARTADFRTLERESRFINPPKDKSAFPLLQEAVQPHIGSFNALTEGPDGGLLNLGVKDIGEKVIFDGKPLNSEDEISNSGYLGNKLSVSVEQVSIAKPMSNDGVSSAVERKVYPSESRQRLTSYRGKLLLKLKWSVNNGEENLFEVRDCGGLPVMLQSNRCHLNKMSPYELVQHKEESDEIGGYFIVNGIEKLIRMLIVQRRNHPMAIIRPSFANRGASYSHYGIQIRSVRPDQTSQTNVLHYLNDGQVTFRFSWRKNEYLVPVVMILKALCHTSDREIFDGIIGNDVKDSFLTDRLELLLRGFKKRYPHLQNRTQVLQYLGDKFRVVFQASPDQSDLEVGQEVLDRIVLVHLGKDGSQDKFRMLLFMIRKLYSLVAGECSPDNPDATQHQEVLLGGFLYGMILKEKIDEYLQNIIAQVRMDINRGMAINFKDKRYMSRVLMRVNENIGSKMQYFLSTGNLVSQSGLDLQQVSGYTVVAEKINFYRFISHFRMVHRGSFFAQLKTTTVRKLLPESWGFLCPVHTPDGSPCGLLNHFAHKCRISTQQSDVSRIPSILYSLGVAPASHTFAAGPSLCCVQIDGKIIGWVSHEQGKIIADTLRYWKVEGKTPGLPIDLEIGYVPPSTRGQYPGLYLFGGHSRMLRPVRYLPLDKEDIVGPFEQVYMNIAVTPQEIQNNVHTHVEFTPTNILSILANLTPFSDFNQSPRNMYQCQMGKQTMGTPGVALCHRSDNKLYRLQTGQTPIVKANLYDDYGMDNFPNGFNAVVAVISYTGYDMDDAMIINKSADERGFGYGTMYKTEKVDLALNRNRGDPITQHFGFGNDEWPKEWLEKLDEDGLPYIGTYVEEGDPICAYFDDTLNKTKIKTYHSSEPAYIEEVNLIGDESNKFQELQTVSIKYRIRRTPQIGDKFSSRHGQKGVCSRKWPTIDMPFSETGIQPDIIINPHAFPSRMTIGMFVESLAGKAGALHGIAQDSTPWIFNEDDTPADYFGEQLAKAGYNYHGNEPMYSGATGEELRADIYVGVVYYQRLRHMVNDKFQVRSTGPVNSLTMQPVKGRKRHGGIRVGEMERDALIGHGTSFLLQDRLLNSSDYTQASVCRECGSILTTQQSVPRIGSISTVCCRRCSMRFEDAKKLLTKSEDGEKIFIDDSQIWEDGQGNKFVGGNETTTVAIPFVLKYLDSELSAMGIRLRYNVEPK
As to the kind of experiment: cryo-EM structure; Pol I (1.5 uM) and Rrn3 (3 uM) mixed 5 h at 4°C, then 70-bp transcription scaffold (-50 to +20, 15-nt mismatch, 10-nt RNA) 1 h, then CF (1.5 uM); dialysed from 300 to 100 mM potassium acetate, 50 mM HEPES-NaOH pH 7.5, 5 mM magnesium acetate, 10 mM DTT; 38,589 particles, 4.4 Å. The conditions noted are these: both partners purified.

In another test the target is T2, Rrn7 (yeast, UniProt P40992 1-514).
T2 construct: Rrn7, TFIIB-like subunit of yeast Core Factor; Stood in the assay as a subunit of CF within the Pol I PIC; also called CF subunit Rrn7; TFIIB-related subunit Rrn7; source: E. coli BL21(DE3)Star pRARE, co-expressed as Core Factor, purified
T2 sequence: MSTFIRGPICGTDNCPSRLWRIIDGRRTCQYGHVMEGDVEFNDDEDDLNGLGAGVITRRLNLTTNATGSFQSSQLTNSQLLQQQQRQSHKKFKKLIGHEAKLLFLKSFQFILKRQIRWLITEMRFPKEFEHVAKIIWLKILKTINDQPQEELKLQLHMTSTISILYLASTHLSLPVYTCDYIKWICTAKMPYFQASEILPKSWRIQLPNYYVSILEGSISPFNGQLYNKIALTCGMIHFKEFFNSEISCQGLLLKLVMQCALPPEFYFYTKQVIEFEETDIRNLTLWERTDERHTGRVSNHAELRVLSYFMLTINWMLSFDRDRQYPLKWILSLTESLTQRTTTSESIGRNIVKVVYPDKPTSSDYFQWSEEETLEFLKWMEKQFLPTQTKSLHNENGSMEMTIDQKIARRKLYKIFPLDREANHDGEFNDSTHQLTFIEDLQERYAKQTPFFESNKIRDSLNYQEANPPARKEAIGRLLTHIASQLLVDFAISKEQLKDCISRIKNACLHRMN
As to the kind of experiment: cross-linking; purified Pol I PIC (50 ug, 1 mg/ml) with H12/D12 DSS at 2 and 5 mM, 30 min at 37°C; LC-MS/MS, xQuest, LD score at least 23. The note with it: both partners purified.

B1: Rrn11 (natural protein, yeast)
chain: MFEVPITLTNRKFAQRRKLKYQYINYISRRFDRISKKSTTTDSLPTPENSAAENNDEEEGQNSEAGTYRRSVLQQKKRRRERHWRSVVGEIYSTTESETDSQEEETEEGGEHDTGIDKEDSDEERKFWKKYEKPEKSFEIWRTVSSQNKQPINKQKMTYHNFKKIEKIPLRKMEIPLLHCTKENKLYFQSISRGLEPLKTSTSEVRNYRTRHIVTLTDLLHLNVSRHNWSLAYKIFATLIRIPGVQIKSLWGIGVEILDNLSNSSSGLDFLQWMCQIYSSKSRFVQNINYRSIVPPFQTGSRTHTAKFAITYLWSSLINCQKSMEPSSNIIDKPFDTENDLLQELIDKISEWVLTPPFMEDAEVWFIYASCHLLKADTLSRQFVNDNKNNDLIGLDRDIKINQVIKHIHYVRTFLKICLDKGGFAVPSRLIENQLKSFESRLYGEAQDIQERDVANVYDSIDNSSVENSFGDVYETNAEFLDTQLMDLSPEDNGLDEMHYSDEDSSE
notes: Rrn11, subunit of yeast Core Factor; Stood in the assay as a subunit of CF within the Pol I PIC; also called CF subunit Rrn11; source: E. coli BL21(DE3)Star pRARE, co-expressed as Core Factor, purified
As to B1, the binding result with A135 is “binds”.

B2: Rpb12 (natural protein, UniProt P40422 1-70, looked up)
chain: MSREGFQIPTNLDAAAAGTSQARTATLKYICAECSSKLSLSRTDAVRCKDCGHRILLKARTKRLVQFEAR
notes: Rpb12, subunit of yeast RNA polymerase I; Stood in the assay as a subunit of Pol I within the PIC; source: purified from S. cerevisiae strain SC1613 as a subunit of Pol I
For B2, the binding result with Rrn7 is “binds”.
